The results in this text go back to the domain aggregation screens of Martell et al. (2025).

A value given as a limit tells only on which side of the number the result lay.

The data set can be described thus: soluble fraction after stress (log2 fold change); higher = more stays soluble; pooled small domains, quantitative proteomics. The settings on record: stress: pH 4. The procedure, abridged: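 Aggregation propensity is read out as the fold change in how much of each domain remains soluble after acid stress. The custom small-domain libraries were pooled, held at pH 4 and analysed with high-throughput quantitative proteomics. On the log2 scale used, higher values mean more of the domain stayed soluble.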
“HMGGEAEVLQSIDEGREVEVRSVAADGSAEVIYRGARWRARAAVGSLAAGRWTIGRVDGTELVLEK”: the “soluble fraction (log2)” value is 0.215.

With “HMGGEEKALLFGDVDIREAGEITQRLEQAEIPYELRGDGSSIFVPRSRVMEARMMISADGLL”, the “soluble fraction (log2)” value was -0.901.

For “HMGGEKLPAPVAGTLLRYSVAEGARVSEGQTVIILESMKMELEINTPKAGVIHFLAAVGAQVAEGDTLAEI”, the “soluble fraction (log2)” value was -0.171.

On to “HMGGGTPEERLATLAAIAERQEMLLERLGPNNPLVSLGQYSRTLSRMVQLAGFKDASQYFNELPLDFQMPE”, for which the “soluble fraction (log2)” value was -0.437.

Consider “HMGGHLAYGFSRRFGLLIDEQQGEPVIIARPDYSPVHYAEARRIVGQPAALRVVDEQAFNQLLQSQQESGA”, for which the “soluble fraction (log2)” value was -0.383.

Take “HMGGLENNLKQARNRVGLTQSELARQAGISRQAYSSLESGAANPSTEVALRLAQALSERVESLFYLPE”: the “soluble fraction (log2)” value was -0.169.

In the case of “HMGGNVYAYRLTASVKSGEQIPANKIEKVKMLSSDLPTNYVPDTVNVTAYKSKLDLQAGTILSTSLLYEN”, the “soluble fraction (log2)” value turned out to be 0.247.

Take “HMGGPTARQMEVLSLIAQGLPNKRIADELGIAERTVKLHITALLDSLGARNRTHLLVVARERGM”: the “soluble fraction (log2)” value is -0.608.

For “HMGGQKTREAIFDLIMTNSKITSAQIAEILGIHRSGVARHLKKLQEEGLIKREGPDNGGQWIVIK”, the “soluble fraction (log2)” value was -0.298.

Consider “HMGGQYQVRPGETLNQIAARVRPSNMSLSETQKAIIQANPDIFKNGNPNLIFAGDILRIPTGNQI”, for which the “soluble fraction (log2)” value is -0.224.

Regarding “HMGGTTLIAKQATVTGDIQFSSNLDIEGRVVGAISVEPGKEAMLHVVEGGSVEGEIRVPSAVINGKVTGDI”, the “soluble fraction (log2)” value is -0.775.

For “HMGGVEWLTHPIGPRDSLQVLARAGLEARPTSDGDYEIYGQERWPQRDQARLMGWLRRFGQWVWQALYDK”, the “soluble fraction (log2)” value was -0.386.

On to “HMGHEALSSKLDEIQGVGKEKRSLLLDHFKTFERIKNASMEELEAVPSLGKNTAKAVFRFFHS”, for which the “soluble fraction (log2)” value is 0.236.

Consider “HMGHLTWTVTGIGHERRARTVAEQMSSVFGVLEARASSAGTVYLEFEREKIDEGGLEASLKRMGVTRVV”, for which the “soluble fraction (log2)” value was -2.05.

“HMGIAFDYDAGRFDQVPPNLVEKWQQAYPAVDVLSELRRMEAWASANPVNRKSNWQRFIVNWLTRAQDRAG”: the “soluble fraction (log2)” value is -0.16.

Take “HMGIAKYRQVTEWIQNRIATGELNRGDQIESENDISRTFGISRQTVRHALGLLEQQGILTRIQGRGTFVRD”: the “soluble fraction (log2)” value was 0.309.

For “HMGIFDIIQEINRQGVTVLLIEQNANMALKIADVGYVLETGRISLTGSGRELLANEAVKKAYL”, the “soluble fraction (log2)” value is not below 0.43.

Regarding “HMGIKYTNQRVEILNFLKDNLSHPTVDDVYEGVKKKLTRISKATVYQNLKFLASKGLIQEVNIKGVSRFEP”, the “soluble fraction (log2)” value came to 0.22.

Turning to “HMGIRQGKVTSTFVNVRSGASTANAKVGELHKGDVVSLIEKVANFWRIGPGQFVSADYIQVLAS”, the “soluble fraction (log2)” value was -0.0122.

“HMGIRYQLADDVTDEQITAMTGKKAKIAAAIKAAGSAVSKMNVAGEMGYDKQNPINKDFMELVDAGIIVPS”: the “soluble fraction (log2)” value was -0.121.

On to “HMGISEKVINIIETYTMIARKKYPSVKSLAEHFNVSERTVHRYLEIIKMIDVVDYDREKKGYFFPYGDR”, for which the “soluble fraction (log2)” value is -0.462.

As to “HMGISSESIKTFIREIVENEDPKAPLSDQTMVELLAERGIDISRRTVAKYRDEMNLPSSSKRKR”, the “soluble fraction (log2)” value was -0.168.

Turning to “HMGKAMIDWEREQSILRILLRQKALTTEQAREVYQDGMREDLSALEMGVQRGYFTHEQLREATGGE”, the “soluble fraction (log2)” value amounted to 0.00817.

For “HMGKASNEVYEVISSKIRTGEWAPGYKLPSEPTLAEEFGVSRATVREALQELISRGRIKREQGRGTYVLH”, the “soluble fraction (log2)” value is -0.118.

For “HMGKAVTLEEARAIIQAKVPGASPDMIQIWEEHGDGRGRYEGELSYNNMKYEFEMDPKTGIIFDWNA”, the “soluble fraction (log2)” value is -0.189.

In the case of “HMGKEDISQINKLYQNQILDYETYIDTLNSFNIDTKSKDFKNLLDLFIKKSISFETFNKGIINIHNKS”, the “soluble fraction (log2)” value was -1.01.

In the case of “HMGKFMVQVGAFSRINGAEITRTKYDNLGTHKAIIKNLDGMNRVFLTGFLSEDEARDFIASSNLKGAFIIR”, the “soluble fraction (log2)” value is -0.0731.

In the case of “HMGKGVDKIMKMADDYSYGKIAGKTVDVMTAKLFQAAYNKAPQKAKDKVDKMNEKQLYIFMMNLWKRF”, the “soluble fraction (log2)” value came to 0.0998.

On to “HMGKIILLFSDDDGVFDTALYRVRNYDGHRFAQSLGNAEMKWRHSEDEYFDFVLTSLREDGYDIEEIE”, for which the “soluble fraction (log2)” value is -0.686.

For the sequence “HMGKIINMSKVKQVLRLHTQGVSNRRIALDLGLYKGTVNSYIRKIKDHGYDIAEVLKLDDPVLESKLFA”, the “soluble fraction (log2)” value was 0.268.

“HMGKKGPELNDNEKIIFNIISKENSMNLDDLKNRTELSNKQWDKAIKGLRSHELVNIEKIDDQLLIHL”: the “soluble fraction (log2)” value is -0.598.

Take “HMGKKQLVVDLQSIITDVPAALKSYGLEIGQDGKSLIYTYDTKGERTGITTLLNDLQKAGLQMTDMKTQQ”: the “soluble fraction (log2)” value is -0.0755.

As for “HMGKPTPASQVATRWLAGDLPETLPVAGPAPSFETLARSVSTDFHPRAVLQELLRLGVAEEADGRVRLLK”, the “soluble fraction (log2)” value is -0.0325.

As to “HMGKQPLYEQLVDLLRDRIENDMETGELLPSERKLAHHFGLSRTTVRLAMDRLETLGLITRVHGKDTFVAE”, the “soluble fraction (log2)” value was -0.12.

Consider “HMGKREKTKVANRQAILVAARAVFAELGYEAATVRDIIRGTDLASGTFYNYFKSKEEVFDALADDGA”, for which the “soluble fraction (log2)” value was -0.79.

As for “HMGKSETALELIKRGHRLIADDAVEITRIGSTLSGTAPELIRNYLEVRGVGVIDVEKLFGVGAVQDSTQI”, the “soluble fraction (log2)” value was -0.0577.

On to “HMGKSPLDALSAREKEVLTYITRGVSINDIAAVLYLSPKTVSTHKTNLMQKLGIENNADLILFGVNHGLND”, for which the “soluble fraction (log2)” value was -0.897.

Take “HMGLIAPMPGQIRSVAVSVGDVVKKGQTLLTMEAMKMEIRIQALKDGRVTALHAAQGQTVEGEQILIEVE”: the “soluble fraction (log2)” value is -0.652.

For the sequence “HMGLLEMPSERERQVLVLIAEGLSNKEIAARLYLTEGTVKNHAHSLYAKLNVTTRTLAIARARQLGI”, the “soluble fraction (log2)” value is -0.731.

As to “HMGLLLSQLDKDYQRYIDLADSTFRDNQLAVSRGWYNRALGVKAAEKYPKDQIAEIEKKIAERM”, the “soluble fraction (log2)” value was -0.108.

Consider “HMGLNEGLNEGQQKVIQHIQENEGIKVKEISLKLNMPIDTVDRHIRVLKNLNLIERRGSRKTGGYFISN”, for which the “soluble fraction (log2)” value was 0.111.

Consider “HMGLNELQVKLNEAMQRLSLKHRTVVVMHDIEGIPHDEIAKIVGVSVGTIRSRLFYARRQLQADLGEY”, for which the “soluble fraction (log2)” value is -0.896.

Regarding “HMGLNNVSDILRLDFNSFKKKFDKLPSGYKNSVVEQAALMIKSGELDSIKIKDYIEKSMGIELDI”, the “soluble fraction (log2)” value was -0.0393.

Consider “HMGLQDLFLNSLRKSKTPVTMFLVKGVKLQGVVTWFDNFSVLLRRDGMSQLVYKHSISTIMP”, for which the “soluble fraction (log2)” value was determined as 0.22.

As to “HMGLSARIAQRIHGLRTAQRMSLEALAARSGVSRSMISLIERNEASPTAVVLEKIATGLNVVLAALFDTP”, the “soluble fraction (log2)” value is -0.324.

“HMGLSNYEFNSISQTVKEKLEQGPLTLKALVDETAHLFAEDKVVSVVQWLIDQRDLAYDDHGLLQWKG”: the “soluble fraction (log2)” value is -0.871.

For the sequence “HMGLTLREKMGHVLEMLKGREFLPFVSLFTVEEGRIGVVVTFMSILELVKEGILDLVQTESFGPIHVKAR”, the “soluble fraction (log2)” value is 0.0455.

Turning to “HMGMAETTARILQLLGLLQSRRGWSGQELAERLGVTTRSVRRDVERLRELGYPVHASAGHGGGYQLGA”, the “soluble fraction (log2)” value is -0.106.

As to “HMGMGDALRILFNQAMLIEREQYLQAGAYERNENPVNYANGFKAKTLNTRVGALEVAVPQTRDSAFYPSFL”, the “soluble fraction (log2)” value is -0.163.

On to “HMGMLATFVTSAKVPDDVVYAITKEVFENLDEFKKLHPALEGLTRETMLEGLTAPIHPGALKYYKEAGLM”, for which the “soluble fraction (log2)” value was -1.32.
